Consider five molecules from patent EP4786496A1 (Nanjing Iaso Biotechnology Co., Ltd., dated 2026).

The target in assay [1] is T1, BAFF-R on the surface of BAFF-R-positive cells (K562-BAFF-R, NALM6, RS4, MEC1, JEKO1) (human, UniProt Q96RJ3 1-184).
T1 construct: The cell line is named under assay or readout of each row; K562-BAFF-R overexpresses BAFF-R; the others are human tumour lines that carry it natively; also called K562-BAFF-R cells; RS4-luc
T1 sequence: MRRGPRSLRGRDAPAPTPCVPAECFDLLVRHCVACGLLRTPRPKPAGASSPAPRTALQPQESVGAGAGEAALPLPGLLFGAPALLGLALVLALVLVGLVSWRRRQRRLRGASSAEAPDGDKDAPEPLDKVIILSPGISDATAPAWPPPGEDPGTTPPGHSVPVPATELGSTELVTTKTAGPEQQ
Kind of assay: flow cytometry, phage on K562-BAFF-R and NALM6 cells.

Assay [2] deals with T2, Recombinant biotinylated Human BAFF-R Protein (KACTUS, BAFF-R-HM401) (human, UniProt Q96RJ3 7-71, limits assumed, biotinylated (site not stated)).
T2 construct: Bought protein; treated as one product; also called BAFF-R-his-Bio; BAFF-R-Bio-his; not shown: His tag
T2 sequence: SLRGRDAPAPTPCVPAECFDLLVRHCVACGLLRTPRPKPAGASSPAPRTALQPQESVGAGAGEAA
Kind of assay: ELISA, antigen coated on plate, anti-human IgG HRP.

Assay [3] deals with T3, BAFFR-cyno-His (BAF-CM10R, KACTUS) (cynomolgus, UniProt Q96RJ3 7-71 (human entry), limits assumed).
T3 construct: Bought protein; also called Cyno BAFF-R; cynomolgus BAFF-R; not shown: His tag
Kind of assay: ELISA, antigen coated on plate, anti-human IgG HRP.

Assay [4] addresses T4, BAFFR-mouse-rFc (50353-M31H, Sino) (mouse, UniProt Q9D8D0 1-71).
T4 construct: Bought protein; also called Mouse BAFF-R; not shown: rFc
T4 sequence: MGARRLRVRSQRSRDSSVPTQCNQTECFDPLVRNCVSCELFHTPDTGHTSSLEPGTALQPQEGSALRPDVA
Kind of assay: ELISA, antigen coated on plate, anti-human IgG HRP.

The target of assay [5] is T5, His-tagged human BAFF-R antigen (BAR-H52H3, Acro) (human, UniProt Q96RJ3 7-71, limits assumed).
T5 construct: Bought protein used in BLI; not shown: His tag
T5 sequence: T2 sequence
Kind of assay: BLI (ForteBio Octet), His-tagged antigen on HIS1K sensor, antibody in solution.

For assay [6], the target named is T6, Streptavidin (Pierce, 21125) (UniProt P22629 37-163, limits assumed).
T6 construct: Control antigen of the ELISA; also called SA; control protein SA
Kind of assay: phage ELISA.

Assay [7] addresses T7, KACTUS-CD19-Fc (Recombinant biotinylated Human CD19 Protein, KACTUS CD2-HE121) (human, UniProt P15391 20-291, biotinylated (site not stated)).
T7 construct: Bought unrelated antigen; not shown: Fc
T7 sequence (looked up): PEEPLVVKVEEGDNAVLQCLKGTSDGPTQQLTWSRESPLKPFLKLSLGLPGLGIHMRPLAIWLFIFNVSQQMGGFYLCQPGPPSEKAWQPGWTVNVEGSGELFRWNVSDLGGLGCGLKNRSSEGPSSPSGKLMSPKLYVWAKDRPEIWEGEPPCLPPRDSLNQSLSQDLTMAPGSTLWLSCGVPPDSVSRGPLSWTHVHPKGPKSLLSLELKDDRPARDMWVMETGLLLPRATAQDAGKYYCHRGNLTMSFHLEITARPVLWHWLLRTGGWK
Kind of assay: phage ELISA.

For assay [8], the target named is T8, ACRO-CD70-his (Biotinylated Human CD27 Ligand ,His,Avitag; ACRObiosystem CDL-H82Q9) (human, UniProt P32970 39-193, limits assumed, biotinylated (Avitag)).
T8 construct: Bought unrelated antigen; not shown: His tag and Avitag
T8 sequence (looked up): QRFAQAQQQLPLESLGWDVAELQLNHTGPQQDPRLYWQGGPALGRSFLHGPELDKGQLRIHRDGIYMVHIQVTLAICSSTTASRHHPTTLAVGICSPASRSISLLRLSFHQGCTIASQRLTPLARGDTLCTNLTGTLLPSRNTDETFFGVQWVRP
Kind of assay: phage ELISA.

Assay [9] addresses T1, BAFF-R on the surface of …. Kind of assay: cell-based or functional assay.
For assay [10], the target named is T1, BAFF-R on the surface of …. Kind of assay: cell-based or functional assay. This is another data set of the same source.
Assay [11] deals with T1, BAFF-R on the surface of …. Kind of assay: cell-based or functional assay. The source holds these as a separate data set.
Assay [12] has as its target T1, BAFF-R on the surface of …. Kind of assay: cell-based or functional assay. The source holds these as a separate data set.
In assay [13] the target is T1, BAFF-R on the surface of …. Kind of assay: cell-based or functional assay. This is another data set of the same source.
Assay [14] has as its target T1, BAFF-R on the surface of …. Kind of assay: cell-based or functional assay. This is another data set of the same source.
Assay [15] addresses T9, His-tagged human CD3E&D (CDD-H52W1, Acro) (human, UniProt P07766 23-126; P04234 22-105).
T9 construct: Bought His-tagged heterodimer; also called CD3E&D heterodimer complex
Kind of assay: BLI (ForteBio Octet), His-tagged antigen on HIS1K sensor, antibody in solution.

For assay [16], the target named is T10, His-tagged human CD3E&G (CDG-H52W6, Acro) (human, UniProt P07766 23-126; P09693 23-111).
T10 construct: Bought His-tagged heterodimer; also called CD3E&G heterodimer complex
The assay is described as above.

T9 sequence (P07766 23-126, chain 1 of 2): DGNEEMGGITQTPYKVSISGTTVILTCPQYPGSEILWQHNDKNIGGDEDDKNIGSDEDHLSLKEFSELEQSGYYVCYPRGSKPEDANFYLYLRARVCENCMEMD
T9 sequence (P04234 22-105, chain 2 of 2): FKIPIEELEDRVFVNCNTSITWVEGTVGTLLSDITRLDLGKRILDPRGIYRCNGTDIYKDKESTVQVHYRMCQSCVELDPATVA
T10 sequence (P07766 23-126, chain 1 of 2): as the sequence (P07766 23-126, chain 1 of 2) above
T10 sequence (P09693 23-111, chain 2 of 2): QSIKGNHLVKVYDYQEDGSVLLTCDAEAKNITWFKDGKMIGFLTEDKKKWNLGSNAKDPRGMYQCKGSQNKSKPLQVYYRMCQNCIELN
T6 sequence (P22629 37-163 limits assumed): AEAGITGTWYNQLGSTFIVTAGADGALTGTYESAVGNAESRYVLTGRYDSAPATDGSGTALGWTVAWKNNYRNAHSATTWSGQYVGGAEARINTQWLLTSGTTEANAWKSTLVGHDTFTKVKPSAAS

B1: VAY736 positive control phage antibody clone (scFv)
scFv: QVQLQQSGPGLVKPSQTLSLTCAISGDSVSSNSAAWGWIRQSPGRGLEWLGRIYYRSKWYNSYAVSVKSRITINPDTSKNQFSLQLNSVTPEDTAVYYCARYQWVPKIGVFDSWGQGTLVTVSSGGGGSGGGGSGGGGSDIVLTQSPATLSLSPGERATLSCRASQFILPEYLSWYQQKPGQAPRLLIYGSSSRATGVPARFSGSGSGTDFTLTISSLEPEDFAVYYCQQFYSSPLTFGQGTKVEIK
notes: also called VAY736 antibody
Regarding B1, in assay [1], the binding result was “binds”.

B2: Clone 5 monoclonal antibody with Fc comprising S228P/L235E (05VH-hFc PE) (antibody, human IgG4 S228P, V domains shown)
VH: EVQLVESGGGVVQPGRSLRLTCAASGFTFSTSGMYWIRQAPGKGLEWVSYISSSSSTIYYADSVKGRFTISRDNSKNTLYLQMNSLRAEDTAVYYCVTQSCGAGKCYPGVWGQGTTVTVSS
notes: Single-domain VH fused to a human Fc, made in CHOS cells; also called Clone 05; clone 05 monoclonal antibody
With B2, the EC50 in assay [2] stood at 0.965 nM; in [3], 1.91 nM; in assay [4], 3.4 nM. Moreover, binding in assay [5] was put at a Kd of 2.63 nM. In addition, the koff in [5] worked out at 0.00163 s⁻¹. Further, the kon in [5] amounted to 622000 M⁻¹ s⁻¹.

B3: Clone 5 (monoclonal phage antibody) (VHH)
VHH: B2 VH
notes: also called 05; 05VH
With B3, the binding result in [6], in assay [7] and in assay [8] was “no binding” in each case.

B4: 0205-3, VH2-Fab2-Fc 2+2 α-BAFF-R VH×α-CD3 Fab bispecific antibody (bispecific antibody)
heavy: not shown
light: QAVVTQESALTTSPGETVTLTCRSSTGAVTTSNYANWVQEKPDHLFTGLIGGTNKRAPGVPARFSGSLIGDKAALTITGAQTEDEAIYFCALWYSNLWVFGGGTKLTVLGQPKAAPSVTLFPPSSEELQANKATLVCLISDFYPGAVTVAWKADSSPVKAGVETTTPSKQSNNKYAASSYLSLTPEQWKSHKSYSCQVTHEGSTVEKTVAPTECS
notes: To be checked
As for B4, in [9], the “TDCC reporter gene cell activation by K562-BAFF-R, EC50” value worked out at 0.041 nM and the “TDCC reporter gene cell activation by K562-BAFF-R, top” value was 10900. In [10], the “TDCC reporter gene cell activation by Nalm6, EC50” value was found to be 0.021 nM and the “TDCC reporter gene cell activation by Nalm6, top” value stood at 1870. Moreover, in [11], the “TDCC reporter gene cell activation by Mec-1, EC50” value was 0.047 nM and the “TDCC reporter gene cell activation by Mec-1, top” value is 1490. In addition, in [12], the “TDCC reporter gene cell activation by Jeko-1, EC50” value came to 0.046 nM and the “TDCC reporter gene cell activation by Jeko-1, top” value was found to be 1230. Also, in assay [13], the “killing of Jeko-1 cells by PBMC (Donor 301C), 24hr, EC50(pM)” value amounted to 18 pM; the “killing of Jeko-1 cells by PBMC (Donor 301C), 24hr, top (%)” value amounted to 28.5%; the “killing of Jeko-1 cells by PBMC (Donor 301C), 48hr, EC50(pM)” value is 8.78 pM; the “killing of Jeko-1 cells by PBMC (Donor 301C), 48hr, top (%)” value was found to be 102%. Further, in [14], the “killing of Jeko-1 cells by PBMC (Donor 605C), 24hr, EC50(pM)” value came out at 2.48 pM; the “killing of Jeko-1 cells by PBMC (Donor 605C), 24hr, top (%)” value is 6.34%; the “killing of Jeko-1 cells by PBMC (Donor 605C), 48hr, EC50(pM)” value was determined as 2.81 pM; the “killing of Jeko-1 cells by PBMC (Donor 605C), 48hr, top (%)” value amounted to 102%. Further, in assay [5], the Kd stood at 1.27 nM, the koff was found to be 0.00136 s⁻¹ and the kon came to 1.07e+06 M⁻¹ s⁻¹. In [15], this molecule yielded a Kd of 10.6 nM, a koff of 0.0032 s⁻¹ and a kon of 302000 M⁻¹ s⁻¹. Moreover, in assay [16], the Kd amounted to 9.03 nM, the koff worked out at 0.00251 s⁻¹ and the kon was 277000 M⁻¹ s⁻¹.

B5: Clone 1 (monoclonal phage antibody) (scFv, V domains shown)
VH: EVQLVESGAEVKKPGASVKVSCKASGYTFTSYGISWVRQAPGQGLEWMGWISAYNGNTNYAQKLQGRVTMTTDTSTSTAYMELRSLRSDDTAVYYCARNTYYYDSSGYPNDAFDIWGQGTTVTVSS
VL: DIQMTQSPSSLSASVGDRVTITCRASQKISSYLNWYQQKPGKAPKLLIYAASSLQSGVPSRFSGSGSGADFTLTISSLQPEDFATYYCQQSYSPPTTFGGGTKVDIKR
notes: also called 01
In the case of B5, the binding result in assay [6], in [7] and in assay [8] was “no binding” each time.
